# Measured values as given in patent US11992557B2, “Collagenase loaded liposomes for enhancing drug delivery” (TECHNION RESEARCH & DEVELOPMENT FOUNDATION LIMITED, priority 2018, dated 2024).
# What was measured:
# Wistar rats = settings: rat, in vivo
# Description: All rats were anesthetized in two stages. In the first stage the rats were anesthetized with isoflurane. In the second stage each rat was injected a mixture of Ketamine and Xylazine intraperitoneally. After each procedure, the rats were transferred and kept in an incubator, with constant oxygen flow, until they reached full recovery.
# An ordinary orthodontic Ni—Ti closed coil spring (9 mm closed coil spring nickel and titanium alloy that has 2 eyelets with an inner radius of 0.76 mm) was used to connect the 1st molar in the upper pallet to the front upper incisors of the rat. The Ni—Ti coil spring was glued to the tooth (3M UNITEK), which generates constant force of 200 grams (1.96 N) when extended between 12-24 mm. The force applied in the oral cavity was the same on all the rats that participated in the experiment. […] The procedure of installing the Ni—Ti coil closed spring was performed using human orthodontics equipment and materials. The 1st upper molar and the upper incisors were dried and cleaned using cotton swabs to remove any debris that accumulates. […]
# Collagenase-liposomes (see above Liposome Preparation), or a similar concentration of free collagenase, were applied directly to the sulcus. […] The distance between the eyelet of the Ni—Ti closed coil on the first molar and the back of the upper incisors was measured and recorded using the digital caliper. […]
# PDAC tumors = experiment: Effect of the collagenase treatment on pancreatic uptake of Gd-/iodine-liposomes; assay type: in vivo, C57BL/6 mice; settings: PDAC mice, Gd-liposomes after pretreatment
# Description: Control groups included injections of empty liposomes (n=10 mice), free collagenase (n=5 mice) or no injection at all (n=3 mice) instead of collagenase encapsulating liposomes. […] 24 hours later, the animals were euthanized, and their organs were harvested. The amount of Gadolinium in each organ was analyzed using elemental analysis (ICP-EOS, Agilent) at wavelengths of 335.048 and 342.246 nm. The organs were harvested, weighed and then burnt at 550° C. overnight. The burnt organs were dissolved in 5 ml of 1% nitric-acid and filtered using […] filters (Millipore Millex-GV, Merck, Darmstadt, Germany). The Gd concentration in the organs was measured using an ICP-EOS elemental analysis.
# Micro-CT scan. Mice were imaged using an IVIS Spectrum CT Pre-clinical in-vivo imaging system (PerkinElmer, MA, USA) with the following parameters: CT was set to 50 ms, total projections were 720, voltage was set to 50 kV while the current to 1 mA the binning was determined to 2 and the X-ray filter was set to 440 A1. Hounsfield calibration was performed in air-0.004168 and water-0.5513. Two groups of tumors bearing mice (n=5 each) were divided to control and test group. The mice were weighed weekly and tumor progression was monitored by weekly IVIS scans (PerkinElmer). […] Tumor dimensions were assessed using the ROI tool in the IVIS imaging software (Living Image, PerkinElmer).
# PDAC collagen = experiment: Collagen analysis after ex-vivo collagenase treatment of pancreatic tumor slices; design: species or system mice; settings: PDAC treated with 0.05-0.2 mg/ml collagenase ex-vivo, Masson's trichrome
# Description: Collagen analysis after the collagenase treatment. Pancreatic tumors were harvested from tumor bearing mice, six weeks after the initiation of the tumor model. Each tumor was sliced horizontally to 1 cm thick slices. All the extracted slices were mixed and randomly chosen for different treatments groups. Treatments included incubation in DMEM medium (Sigma-Aldrich) with collagenase type-I (Sigma-Aldrich) at increasing concentrations: 0.05, 0.1 or 0.2 mg/ml for either 8 or 24 hours. Following the enzymatic treatment, the tumor slices were sectioned, fixated in 10% formalin (Sigma-Aldrich) and stained with Masson's trichrome. Computerized morphometry was utilized to quantitate the fraction of the fibrotic area out of the total area of the tumor in each sample. Computerized morphometry of the collagen was used to determine fibrosis fraction within each sample. Masson's trichrome staining was performed to identify the pancreatic fibrosis. Then, stained slides were entirely scanned at magnification of X20 using the Panoramic MIDI automatic digital slide scanner (3DHistech, Budapest, Hungary). The whole slide was analyzed in Image Pro Premier 9.2 software (Media Cybernetics, MD, USA). Fibrosis area was calculated according to the blue staining within the tissue, and the tissue area was calculated by choosing the whole tissue with the machine ‘color picker tool’.
# [1] = test system: fluorescein conjugated gelatin; experiment: Collagenase activity test in various conditions (temperature, ethanol, pH, extrusion pressure); assay type: biochemical
# Description: Collagenase activity assay. Collagenase activity was assessed using fluorescein conjugated gelatin (ThermoFisher) as a substrate. The enzyme solution was added to the substrate solution together with a reaction buffer (0.5 M Tris-HCl, 1.5 M NaCl, 50 mM CaCl2, 2 mM sodium azide, pH 7.6). Fluorescence intensity for every sample was measured every 15 seconds for 3 minutes with excitation set at 485 nm and emission at 530 nm using the Infinite 200 PRO multimode reader (TECAN, Mannedorf, Switzerland). A linear incline was determined, and collagenase concentration was calculated using a calibration curve generated by collagenase samples of known concentrations.
# Having established that collagenase's activity drops rapidly at 37 degrees (FIG. 7B), other parameters during liposome production that might affect the protein's integrity and function were examined.
# Lastly, the activity of free collagenase at various pH was assayed.
# [2] = test system: fluorescein conjugated gelatin substrate
# Description: Collagenase activity assay. Collagenase type-I activity was determined using gelatin with fluorescein conjugate as a substrate (ThermoFisher). Collagenase (100 μl) was mixed with 80 μl of reaction buffer (0.05M Tris-HCl, 0.15M NaCl, 5 mM CaCl2, 0.2 mM sodium azide at pH 7.6) and 20 μl of 0.125 mg/ml gelatin diluted in PBS. The fluorescent intensity was measured every 15 seconds over a period of 3 minutes at 485 nm and 530 nm (excitation/emission) using an Infinite 200PRO. Collagenase activity was measured at 37° C., where plasma or PBS served as control.
# To test the collagenase activity, liposomal collagenase after dialysis or free collagenase in phosphate buffered saline at a concentration of 5 ug/ml, were incubated at 37° C. Every hour, a collagenase sample was assessed for its capacity to cleave a fluorescein conjugated gelatin substrate (Thermo Fisher). Activity of the released collagenase was determined in accordance to the change in fluorescence over 3 minutes, relative to the fluorescence at t=0.
# In order to quantify the protective nature of liposome encapsulation versus free collagenase, both free enzyme and encapsulated enzyme were incubated in PBS or serum and protein activity was measured by Enzcheck Assay at 0, 1, 6 and 24 hours.
# pancreatic tumors = experiment: Penetrance of gold nanoparticles after pretreatment of PDAC mice; settings: mouse, in vivo
# Description: In order to quantify the extent to which encapsulation of collagenase in liposomes improved drug penetrance over free collagenase, PDAC mice were pretreated (intravenous injection twice, 24 hours apart) with empty liposomes, free collagenase or liposome encapsulated collagenase and then 24 hours later gold nanoparticles of various sizes. Specifically, 5, 20, and 100 nm gold nanoparticles were injected and gold penetrance to various organs was monitored 24 hours later. Liposome encapsulated collagenase increased the penetrance of 100 nm (FIG. 6B) and 20 nm (FIG. 6C) gold particles into pancreatic tumors as compared to free collagenase and empty liposomes. […] The experiment was repeated, and more organs/bodily fluids were examined, but similar results were obtained (FIG. 6E-G).
# fibroblasts = experiment: Fibroblast adherence to collagen fibers during collagenase treatment; assay type: cell-based; settings: during collagenase treatment of the fiber
# Description: Fibroblast adherence to collagen fibers. The fibroblast morphological change was recorded using The LSM 710-laser scanning confocal microscope (Zeiss) over a period of 90 minutes. The fibroblasts nuclei were stained using Hoechst 33342 (Thermo Fisher Scientific, MA, USA). The Hoechast 16.23 mM stock solution was diluted 1:2000 in Dulbecco's Phosphate Buffer Saline (DPBS, Sigma-Aldrich, St. Louis, USA) and the collagen fiber buffer was removed. 3 ul of the diluted solution was added, followed by 10 minutes light protected incubation. The staining solution was removed, and the fiber was washed 3 times in PBS.
# Collagen type-I bundles = experiment: Stress/strength profile of collagen fibers exposed to proteolytic enzymes; assay type: biochemical, Wistar rats
# Description: Stress/strength profile of collagen fibers exposed to collagenase: Collagen type-I bundles, sourced from the tails of Wistar rats, were suspended using a LLOYD LF-Plus Digital Material Tester force machine. The bundles were suspended inside a bath loaded with a buffer that simulates the composition of the oral fluid: an isotonic solution, pH 6.7 at 37° C. complemented with electrolytes including sodium, potassium, calcium, magnesium, bicarbonate, and phosphates. The bundles, 0.8-1.2 mm in diameter, were cut into two equal 4-cm sections, acting as an internal control. Collagenase type-I from Clostridium histolyticum (Sigma-Aldrich) was added at different concentrations and the stress/strength profile of the collagen fibers was recorded as a function of the collagenase treatment. The Ultimate Tensile Strength (UTS) of the collagen bundle was determined for each collagenase concentration.
# Collagen regeneration SEM. Collagen bundles were mounted on carbon tape and imaged using a Zeiss UltraPlus high-resolution scanning electron microscope (HR-SEM) equipped with an Everhart-Thornley secondary electron detector. Each bundle was then cut in half. The untreated half acted as an internal control for each treated bundle. All data points are the mean of 14-20 experimental points. Collagen fibers were exposed to 0.05 mg/ml collagenase for 8 hours. Ethylenediaminetetraacetic acid (EDTA; ST. Louis, USA), 3 mM along with two drops of NH4Cl 1M buffer, were added for 30 minutes in order to retard the enzyme's activity. Subsequently, the media was removed, and the treated bundles were washed two times with new growth media to allow bundle regeneration.
# Collagen fibers regain their initial mechanical strength post nano-surgery. Collagen fibers were sourced from tails of Wistar rats. Each bundle was cut in half. The untreated half acted as an internal control for each treated bundle. All presented data points are the mean of 14-20 experimental points. Collagen fibers were exposed to collagenase at concentration of 0.05 mg/ml for 8 hours in order to weaken the bundles. […] Subsequently, the media was removed, and the treated bundles were washed twice with new growth media.
# Two plant-based proteolytic enzymes were also tested for their ability to relax collagen: bromelain and papain. These plant-based enzymes are not specific to collagen but have been reported to act on collagen fibers. Collagens fiber strength was tested with a force machine in the presence of 1 mg/ml collagenase, bromelain or papain. The force required to break a bundle of fibers with no treatment was set to 1, and the force required to break the treated fiber bundles was standardized to this force. […] At this same time point bromelain and papain reduced the strength of the collagen fibers such that less than 70% of the control force was needed to rupture the fibers. […] Thus, both papain and bromelain served as effective collagen relaxing enzymes, though much weaker ones than […].
# [3] = test system: human pterygium transplanted to their eyes; experiment: Free collagenase I injection to the conjunctiva of mice with transplanted human pterygium; assay type: in vivo; settings: 10 mg/ml by injection to the conjunctiva
# Description: Pterygium is known to comprise four types of collagen: types I, II, III and IV. The stroma of pterygium and normal conjunctival tissue contains collagen types I, II, and […]. To test the ability of collagenase to break up and treat pterygium, mice that had human pterygium transplanted to their eyes were administered 10 mg/ml free collagenase I by injection to the conjunctiva.
substance,measurement,setting,value
collagenase,inflammation of the gingival tissue (histology),Wistar rats,mild inflammation
same,pancreatic uptake by elemental analysis of Gd,PDAC tumors,15.1 μg-Gd/g-pancreas
same,level of fibrotic tissue,PDAC collagen,1.28±0.3%
same,activity of free collagenase at various pH,[1],Basic pH was found to result in improved collagenase activity
same,activity of free enzyme versus temperature,[1]; 50 degrees or greater,completely abrogated protein function
same,activity of free enzyme in ethanol,[1]; as little as 20% ethanol,completely abrogated protein function
same,protein activity versus ethanol during liposome production,[1]; ethanol procedure,Inclusion of any amount of ethanol was also found to denature the protein and reduce its activity
same,protein activity versus extrusion force,[1]; ethanol procedure,a force above 10 bar during extrusion was found to have a negative effect on protein activity
same,protein activity versus temperature during liposome production,[1]; ethanol procedure,temperatures above 25 began reducing protein activity
same,half-life of collagenase once activated,[2],several hours
same,penetrance of 5 nm particles into tumors,pancreatic tumors,decreased penetrance
same,fibroblast detachment and viability,fibroblasts,fibroblast viability was retained
same,"force needed to rupture the fibers, standardized to control force","Collagen type-I bundles; 1 mg/ml, 4 hours of treatment",almost no force
same,time to degrade the collagen fibers,Collagen type-I bundles; 0.5 and 1 mg/mL collagenase,less than 10 hours
same,initial strength profile regained by collagen fibers,Collagen type-I bundles; after the collagenase activity was retarded (16 h),~90%
same,therapeutic window: fibers relaxed but not fully degraded,Collagen type-I bundles; oral physiological conditions,0.05 to 0.1 mg/mL
same,decrease of collagen fiber strength,"Collagen type-I bundles; therapeutic dose of collagenase (0.05 mg/ml, 8 h)",approximately 50%
same,effect on the eye,[3],"general breakdown of the eye, with extreme inflammation and damage seen throughout the eye"
